According to patent publication US20210371524A1 (VOR BIOPHARMA, published 2021):

T1: cynomolgus CD45 RABC (cynomolgus, UniProt A0A2K5VQ76 26-1301)
T1 construct: also called cyno CD45RABC; cyno RABC
T1 sequence: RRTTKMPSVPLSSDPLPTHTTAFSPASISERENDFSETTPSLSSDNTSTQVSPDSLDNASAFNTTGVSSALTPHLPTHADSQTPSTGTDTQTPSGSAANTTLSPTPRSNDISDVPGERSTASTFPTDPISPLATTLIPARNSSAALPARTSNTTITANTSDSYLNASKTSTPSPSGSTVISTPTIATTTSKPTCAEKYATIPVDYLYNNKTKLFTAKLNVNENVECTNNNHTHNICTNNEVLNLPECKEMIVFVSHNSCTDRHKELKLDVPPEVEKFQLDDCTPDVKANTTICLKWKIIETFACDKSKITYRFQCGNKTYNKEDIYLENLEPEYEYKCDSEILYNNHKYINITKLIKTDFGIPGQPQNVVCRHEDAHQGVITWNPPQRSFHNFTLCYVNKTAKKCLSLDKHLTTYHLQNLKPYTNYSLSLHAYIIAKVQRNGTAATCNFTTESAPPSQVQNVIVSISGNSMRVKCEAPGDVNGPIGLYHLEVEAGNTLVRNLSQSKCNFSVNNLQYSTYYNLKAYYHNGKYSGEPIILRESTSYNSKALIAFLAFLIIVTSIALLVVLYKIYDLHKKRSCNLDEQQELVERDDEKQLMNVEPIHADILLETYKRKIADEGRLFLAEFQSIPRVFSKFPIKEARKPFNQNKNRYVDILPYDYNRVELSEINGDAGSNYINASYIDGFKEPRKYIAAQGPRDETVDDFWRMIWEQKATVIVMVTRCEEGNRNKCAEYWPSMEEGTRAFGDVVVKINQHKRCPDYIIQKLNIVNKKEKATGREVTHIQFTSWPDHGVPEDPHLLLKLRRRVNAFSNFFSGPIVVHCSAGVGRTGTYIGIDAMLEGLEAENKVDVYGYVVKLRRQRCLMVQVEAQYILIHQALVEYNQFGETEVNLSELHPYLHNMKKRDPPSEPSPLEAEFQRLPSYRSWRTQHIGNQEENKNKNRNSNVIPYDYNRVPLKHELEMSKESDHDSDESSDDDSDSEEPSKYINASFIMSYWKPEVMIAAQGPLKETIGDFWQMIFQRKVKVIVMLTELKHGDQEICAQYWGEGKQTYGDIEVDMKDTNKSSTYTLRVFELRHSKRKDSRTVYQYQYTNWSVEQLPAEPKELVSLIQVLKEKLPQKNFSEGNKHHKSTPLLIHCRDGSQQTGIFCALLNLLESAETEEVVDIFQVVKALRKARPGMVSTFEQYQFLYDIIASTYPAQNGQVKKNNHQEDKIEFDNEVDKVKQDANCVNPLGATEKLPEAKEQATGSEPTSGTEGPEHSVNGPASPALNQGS

T2: Rhesus CD45RABC (rhesus, UniProt A0A1D5R142 26-1310)
T2 sequence: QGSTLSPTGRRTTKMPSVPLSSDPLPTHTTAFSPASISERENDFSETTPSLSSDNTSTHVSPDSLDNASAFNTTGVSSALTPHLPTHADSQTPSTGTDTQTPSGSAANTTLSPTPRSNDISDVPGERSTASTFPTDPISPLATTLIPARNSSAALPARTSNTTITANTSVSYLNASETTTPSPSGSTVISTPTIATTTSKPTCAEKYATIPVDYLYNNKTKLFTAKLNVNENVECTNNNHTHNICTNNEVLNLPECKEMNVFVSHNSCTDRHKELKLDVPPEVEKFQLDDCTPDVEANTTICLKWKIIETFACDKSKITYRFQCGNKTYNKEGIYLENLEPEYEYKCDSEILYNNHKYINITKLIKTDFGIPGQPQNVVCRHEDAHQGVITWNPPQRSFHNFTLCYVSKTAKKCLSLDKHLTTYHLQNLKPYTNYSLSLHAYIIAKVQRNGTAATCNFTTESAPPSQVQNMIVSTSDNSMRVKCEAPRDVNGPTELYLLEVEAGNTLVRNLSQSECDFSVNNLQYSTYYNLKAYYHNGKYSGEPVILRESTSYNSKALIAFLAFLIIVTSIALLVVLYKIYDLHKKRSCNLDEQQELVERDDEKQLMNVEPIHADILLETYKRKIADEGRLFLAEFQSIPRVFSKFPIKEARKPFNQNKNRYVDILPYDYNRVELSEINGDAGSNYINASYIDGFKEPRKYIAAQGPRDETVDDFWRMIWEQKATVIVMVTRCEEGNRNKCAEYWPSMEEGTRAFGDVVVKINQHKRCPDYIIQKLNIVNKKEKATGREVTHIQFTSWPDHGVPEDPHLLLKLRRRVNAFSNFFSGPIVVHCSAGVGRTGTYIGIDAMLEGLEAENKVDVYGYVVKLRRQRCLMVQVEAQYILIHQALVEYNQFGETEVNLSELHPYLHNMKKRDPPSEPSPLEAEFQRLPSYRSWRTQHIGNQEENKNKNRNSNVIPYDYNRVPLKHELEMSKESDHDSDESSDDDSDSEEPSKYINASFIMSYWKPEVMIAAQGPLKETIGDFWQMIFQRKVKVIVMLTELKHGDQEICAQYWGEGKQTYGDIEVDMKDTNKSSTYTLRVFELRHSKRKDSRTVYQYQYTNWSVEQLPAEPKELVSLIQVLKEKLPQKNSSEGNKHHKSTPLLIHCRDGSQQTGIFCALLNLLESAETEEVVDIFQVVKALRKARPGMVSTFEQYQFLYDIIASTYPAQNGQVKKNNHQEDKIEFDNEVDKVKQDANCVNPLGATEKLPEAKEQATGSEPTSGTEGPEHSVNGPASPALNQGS

T3: Human CD45RABC Antigen (Fragment of Human CD45RABC Isoform) (human, UniProt P08575 26-577)
T3 sequence: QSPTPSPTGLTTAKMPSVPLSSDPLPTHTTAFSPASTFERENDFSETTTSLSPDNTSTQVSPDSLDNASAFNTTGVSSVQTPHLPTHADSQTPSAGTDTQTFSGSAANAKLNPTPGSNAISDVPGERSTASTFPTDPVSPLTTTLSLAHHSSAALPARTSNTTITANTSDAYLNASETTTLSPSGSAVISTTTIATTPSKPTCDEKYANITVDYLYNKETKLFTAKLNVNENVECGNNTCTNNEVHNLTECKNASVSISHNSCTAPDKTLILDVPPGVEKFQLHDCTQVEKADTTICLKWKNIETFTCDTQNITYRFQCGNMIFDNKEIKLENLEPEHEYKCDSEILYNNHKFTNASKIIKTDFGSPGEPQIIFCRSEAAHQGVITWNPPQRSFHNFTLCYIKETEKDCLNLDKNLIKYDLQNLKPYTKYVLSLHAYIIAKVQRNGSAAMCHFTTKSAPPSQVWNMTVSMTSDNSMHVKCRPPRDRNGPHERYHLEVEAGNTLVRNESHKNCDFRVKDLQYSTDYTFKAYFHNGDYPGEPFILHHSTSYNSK


Key:
[1] = target: human CD45 on human cells (PBMC, CD34+CD90+ bone marrow HSCs, cells expressing CD45) (human), P08575; assay: cell-based or functional assay
cynomolgus CD45 RABC [2] = target: T1, cynomolgus CD45 RABC; assay: Octet (BLI), monovalent binding; KD on cyno against KD on human CD45 RABC
Rhesus CD45RABC [3] = target: T2, Rhesus CD45RABC; assay: Octet (BLI), monovalent binding
cynomolgus CD45 RABC [4] = target: T1, cynomolgus CD45 RABC; assay: Octet (BLI), monovalent binding
[5] = target: T3, Human CD45RABC Antigen (Fragment of …); assay: Octet (BLI), monovalent binding
Rhesus CD45RABC [6] = target: T2, Rhesus CD45RABC; assay: Octet (BLI), monovalent binding; KD on rhesus against KD on human CD45 RABC

Row | Binder | in vitro killing of human PBMCs, 4 days, Celltiter Glo [1] [pM] | in vitro killing of primary human CD34+CD90+ HSCs, 5 days, flow cytometry counts [1] [pM] | Fold cyno to Hu (cynomolgus CD45 RABC [2]) [fold] | Kd (Rhesus CD45RABC [3]) [nM] | Kd (cynomolgus CD45 RABC [4]) [nM] | Kd [5] [nM] | Fold Rhesus to Hu (Rhesus CD45RABC [6]) [fold] | in vitro killing of PBMC immune cells (IC50) [1] [nM] | in vitro killing of primary human bone marrow CD34+CD90+ HSCs (IC50) [1] [nM]
1 | CD45-AM (antibody AbB-amatoxin), Example 4 (antibody, V domains shown, here or on the partner: amanitin conjugated (interchain), drug to antibody ratio (DAR) 4) VH: EVQLVESGGDLVQPGRSLKLSCIASGFTFTNFWMTWIRQVSGKGLEWVASISSSGGSIYYPDSVKDRFTISRDNAKNTLYLQMNSLRSEDTATYYCVKLHYYSGGGDAWGQGTSVTVSS VL: DIQMTQSPSFLSASVGDRVTINCKASQNINKYLDWYQQKHGEAPKLLIHYTNNLHTGIPSRFSGSGSGTDYTLTISSLQPEDVATYFCLQHSSRWTFGGGTKLELK | 614 | 68 |  |  |  |  |  |  | 
2 | AbB chimera (chimeric Antibody B, human IgG1) (antibody, V domains shown, also called chimeric AbB) VH: EVQLVESGGDLVQPGRSLKLSCIASGFTFTNFWMTWIRQVSGKGLEWVASISSSGGSIYYPDSVKDRFTISRDNAKNTLYLQMNSLRSEDTATYYCVKLHYYSGGGDAWGQGTSVTVSS VL: DIQMTQSPSFLSASVGDRVTINCKASQNINKYLDWYQQKHGEAPKLLIHYTNNLHTGIPSRFSGSGSGTDYTLTISSLQPEDVATYFCLQHSSRWTFGGGTKLELK |  |  | 5 | 15.8 | 14.5 | 2.84 | 6 |  | 
3 | AbC chimera (chimeric Antibody C, human IgG1) (antibody, V domains shown, also called chimeric AbC) VH: EVQLVESGGDLVQPGRSLKLSCVASGFTFNNYWMTWIRQVPGKGLEWVASISSSGGSIYYPDSVKDRFTISRDNAKNTLFLQMNSLRSEDTATYYCARLYYYSGGGDAWGQGTSVTVSS VL: DIQMTQSPSFLSASVGDRVTIICKASQDINKYLDWYQQKLGEAPKLLIYNTNNLHTGIPSRFSGSGSGTDYTLTISSLQPEDVATYFCLQHISRWTFGGGTKLELK |  |  | 8 | 63.5 | 62.2 | 7.54 | 8 |  | 
4 | CD45-AM (chimeric AbA as IgG1 conjugated to amatoxin), Example 2 (antibody, V domains shown, here or on the partner: amatoxin (AM) payload conjugated to the antibody; site and drug to antibody ratio not stated in Example 2) VH: EVQLVESGGDRVQPGRSLTLSCVTSGFTFNNYWMTWIRQVPGKGLEWVASISSSGGSIYYPDSVKGRFTISRDNAKNTLYLQMNSLRSEDTATYYCARDERWAGAMDAWGQGTSVTVSS VL: DIQMTQSPPVLSASVGDRVTLSCKASQNINKNLDWYQQKHGEAPKLLIYETNNLQTGIPSRFSGSGSGTDYTLTISSLQPEDVATYYCYQHNSRFTFGSGTKLEIK |  |  |  |  |  |  |  | 0.055 | 0.067
5 | AbA chimera (chimeric Antibody A, human IgG1) (antibody, V domains shown, also called chimeric AbA) VH: EVQLVESGGDRVQPGRSLTLSCVTSGFTFNNYWMTWIRQVPGKGLEWVASISSSGGSIYYPDSVKGRFTISRDNAKNTLYLQMNSLRSEDTATYYCARDERWAGAMDAWGQGTSVTVSS VL: DIQMTQSPPVLSASVGDRVTLSCKASQNINKNLDWYQQKHGEAPKLLIYETNNLQTGIPSRFSGSGSGTDYTLTISSLQPEDVATYYCYQHNSRFTFGSGTKLEIK |  |  | 4 | 12.3 | 9.33 | 2.34 | 5 |  | 
